*1 amine or outer side, *2 acyl side, *3 side chain or, on linkers, in order; H or OH if unused. [ ]: non-standard residue; d: D form. The star is where a group is joined. trans‑Cha(4-CH2NH2) = trans-(4-aminomethyl)cyclohexylalanine, O=C([C@H](C[C@H]1CC[C@H](CN[*:3])CC1)N[*:1])[*:2]; Gly(1-amidinopiperidin-4-yl) = N=C(N)N1CCC([C@H](N)C(=O)O)CC1; DTPA = O=C(O)CN(CCN(CC(=O)O)CC(=O)O)CCN(CC(=O)O)CC(=O)*; Phe(4-guanidino) = N=C(N)Nc1ccc(C[C@H](N)C(=O)O)cc1; homoAla(PipAm) = (N-amidinopiperidinyl)homoalanine; Ala(PipAm) = (N-amidinopiperidinyl)alanine; Dmt = Cc1cc(O)cc(C)c1C[C@H](N)C(=O)O; mTyr = N[C@@H](Cc1cccc(O)c1)C(=O)O; Ala(cPr) = N[C@@H](CC1CC1)C(=O)O; AzeCA = azetidinecarboxylic acid; tBuAla = CC(C)(C)C[C@H](N)C(=O)O; Cha = N[C@@H](CC1CCCCC1)C(=O)O; Chg = N[C@H](C(=O)O)C1CCCCC1; Tle = CC(C)(C)[C@H](N)C(=O)O; Aba(Apy) = not defined here; PipGly = piperidinylglycine; NHOH = ON*
B1: DTPA-DTyr-Glu-Asn-Lys-Pro-Gly(PipAm)-Arg-Pro-Tyr-tBuGly-Cha-OH (peptide)
peptide: {DTPA}-[dY]ENKP[Gly(1-amidinopiperidin-4-yl)]RPY[Tle][Cha]-OH
SMILES: CC(C)(C)[C@H](NC(=O)[C@H](Cc1ccc(O)cc1)NC(=O)[C@@H]1CCCN1C(=O)[C@H](CCCNC(=N)N)NC(=O)[C@@H](NC(=O)[C@@H]1CCCN1C(=O)[C@H](CCCCN)NC(=O)[C@H](CC(N)=O)NC(=O)[C@H](CCC(=O)O)NC(=O)[C@@H](Cc1ccc(O)cc1)NC(=O)CN(CCN(CCN(CC(=O)O)CC(=O)O)CC(=O)O)CC(=O)O)C1CCN(C(=N)N)CC1)C(=O)N[C@@H](CC1CCCCC1)C(=O)O
notes: also called Compound XIV
B2: DTPA-DLys-Pro-(4-Gu)Phe-Arg-Pro-Tyr-Ile-Leu-OH (peptide)
peptide: KPXRPYIL
modifications: N-terminal DTPA; D-Lys at 1; (4-Gu)Phe [Phe(4-guanyl)] at 3 (X)
notes: also called Compound I; DTPA-DLys-Pro-Phe(4-guanyl)-Arg-Pro-Tyr-Ile-Leu-OH
B3: DTPA-DLys-Pro-(4-Gu)Phe-(4-Gu)Phe-Pro-Tyr-Ile-Leu-OH (peptide)
peptide: {DTPA}-[dK]P[Phe(4-guanidino)][Phe(4-guanidino)]PYIL-OH
SMILES: CC[C@H](C)[C@H](NC(=O)[C@H](Cc1ccc(O)cc1)NC(=O)[C@@H]1CCCN1C(=O)[C@H](Cc1ccc(NC(=N)N)cc1)NC(=O)[C@H](Cc1ccc(NC(=N)N)cc1)NC(=O)[C@@H]1CCCN1C(=O)[C@@H](CCCCN)NC(=O)CN(CCN(CCN(CC(=O)O)CC(=O)O)CC(=O)O)CC(=O)O)C(=O)N[C@@H](CC(C)C)C(=O)O
notes: also called DTPA-DLys-Pro-Phe(4-guanyl)-Phe(4-guanyl)-Pro-Tyr-Ile-Leu-OH
B4: DTPA-DLys-Pro-Gly(PipAm)-Arg-Pro-Tyr-Ile-Leu-OH (peptide)
peptide: KPXRPYIL
modifications: N-terminal DTPA; D-Lys at 1; Gly(PipAm) ((N-amidinopiperidinyl)glycine) at 3 (X)
notes: also called Compound II
B5: DTPA-DTyr-Glu-Asn-Lys-Pro-Gly(PipAm)-Arg-Pro-Tyr-tBuGly-Leu-OH (peptide)
peptide: {DTPA}-[dY]ENKP[Gly(1-amidinopiperidin-4-yl)]RPY[Tle]L-OH
SMILES: CC(C)C[C@H](NC(=O)[C@@H](NC(=O)[C@H](Cc1ccc(O)cc1)NC(=O)[C@@H]1CCCN1C(=O)[C@H](CCCNC(=N)N)NC(=O)[C@@H](NC(=O)[C@@H]1CCCN1C(=O)[C@H](CCCCN)NC(=O)[C@H](CC(N)=O)NC(=O)[C@H](CCC(=O)O)NC(=O)[C@@H](Cc1ccc(O)cc1)NC(=O)CN(CCN(CCN(CC(=O)O)CC(=O)O)CC(=O)O)CC(=O)O)C1CCN(C(=N)N)CC1)C(C)(C)C)C(=O)O
notes: also called Compound XIII
B6: DTPA-DLys-Pro-(4-Gu)Phe-Arg-Pro-Tyr-tBuGly-Leu-OH (peptide)
peptide: {DTPA}-[dK]P[Phe(4-guanidino)]RPY[Tle]L-OH
notes: also called Compound IX; DTPA-DLys-Pro-Phe(4-guanyl)-Arg-Pro-Tyr-tBuGly-Leu-OH
B7: DTPA-DTyr-Glu-Asn-Lys-Pro-Gly(PipAm)-Arg-Pro-Tyr-tBuGly-tBuAla-OH (peptide)
peptide: {DTPA}-[dY]ENKP[Gly(1-amidinopiperidin-4-yl)]RPY[Tle][tBuAla]-OH
SMILES: CC(C)(C)C[C@H](NC(=O)[C@@H](NC(=O)[C@H](Cc1ccc(O)cc1)NC(=O)[C@@H]1CCCN1C(=O)[C@H](CCCNC(=N)N)NC(=O)[C@@H](NC(=O)[C@@H]1CCCN1C(=O)[C@H](CCCCN)NC(=O)[C@H](CC(N)=O)NC(=O)[C@H](CCC(=O)O)NC(=O)[C@@H](Cc1ccc(O)cc1)NC(=O)CN(CCN(CCN(CC(=O)O)CC(=O)O)CC(=O)O)CC(=O)O)C1CCN(C(=N)N)CC1)C(C)(C)C)C(=O)O
notes: also called Compound XV
B8: DTPA-DLys-Pro-Arg-(4-Gu)Phe-Pro-Tyr-Ile-Leu-OH (peptide)
peptide: KPRXPYIL
modifications: N-terminal DTPA; D-Lys at 1; (4-Gu)Phe [Phe(4-guanyl)] at 4 (X)
notes: also called DTPA-DLys-Pro-Arg-Phe(4-guanyl)-Pro-Tyr-Ile-Leu-OH
B9: DTPA-DLys-Pro-Gly(PipAm)-Arg-Pro-Tyr-tBuGly-tBuAla-OH (peptide)
peptide: {DTPA}-[dK]P[Gly(1-amidinopiperidin-4-yl)]RPY[Tle][tBuAla]-OH
SMILES: CC(C)(C)C[C@H](NC(=O)[C@@H](NC(=O)[C@H](Cc1ccc(O)cc1)NC(=O)[C@@H]1CCCN1C(=O)[C@H](CCCNC(=N)N)NC(=O)[C@@H](NC(=O)[C@@H]1CCCN1C(=O)[C@@H](CCCCN)NC(=O)CN(CCN(CCN(CC(=O)O)CC(=O)O)CC(=O)O)CC(=O)O)C1CCN(C(=N)N)CC1)C(C)(C)C)C(=O)O
B10: DTPA-DLys-Pro-Gly(PipAm)-Arg-Pro-Tyr-tBuGly-Cpa-OH (peptide)
peptide: {DTPA}-[dK]P[Gly(1-amidinopiperidin-4-yl)]RPY[Tle][Ala(cPr)]-OH
SMILES: CC(C)(C)[C@H](NC(=O)[C@H](Cc1ccc(O)cc1)NC(=O)[C@@H]1CCCN1C(=O)[C@H](CCCNC(=N)N)NC(=O)[C@@H](NC(=O)[C@@H]1CCCN1C(=O)[C@@H](CCCCN)NC(=O)CN(CCN(CCN(CC(=O)O)CC(=O)O)CC(=O)O)CC(=O)O)C1CCN(C(=N)N)CC1)C(=O)N[C@@H](CC1CC1)C(=O)O
B11: DTPA-trans-Cha(4-CH2NH2)-Pro-Gly(PipAm)-Arg-Pro-Tyr-tBuGly-Leu-OH (peptide)
peptide: {DTPA}-[trans‑Cha(4-CH2NH2)]P[Gly(1-amidinopiperidin-4-yl)]RPY[Tle]L-OH
SMILES: CC(C)C[C@H](NC(=O)[C@@H](NC(=O)[C@H](Cc1ccc(O)cc1)NC(=O)[C@@H]1CCCN1C(=O)[C@H](CCCNC(=N)N)NC(=O)[C@@H](NC(=O)[C@@H]1CCCN1C(=O)[C@H](C[C@H]1CC[C@H](CN)CC1)NC(=O)CN(CCN(CCN(CC(=O)O)CC(=O)O)CC(=O)O)CC(=O)O)C1CCN(C(=N)N)CC1)C(C)(C)C)C(=O)O
B12: DTPA-DLys-Pro-Gly(PipAm)-Arg-Pro-Tyr-tBuGly-Cha-OH (peptide)
peptide: {DTPA}-[dK]P[Gly(1-amidinopiperidin-4-yl)]RPY[Tle][Cha]-OH
SMILES: CC(C)(C)[C@H](NC(=O)[C@H](Cc1ccc(O)cc1)NC(=O)[C@@H]1CCCN1C(=O)[C@H](CCCNC(=N)N)NC(=O)[C@@H](NC(=O)[C@@H]1CCCN1C(=O)[C@@H](CCCCN)NC(=O)CN(CCN(CCN(CC(=O)O)CC(=O)O)CC(=O)O)CC(=O)O)C1CCN(C(=N)N)CC1)C(=O)N[C@@H](CC1CCCCC1)C(=O)O

biological target: T1, neurotensin receptors (frozen tissue sections from receptor-positive human tumors) (human, UniProt P30989 1-418); assay: competitive binding vs radioiodinated native neurotensin, human tumor sections
T1 construct: whole, on cells
T1 sequence (P30989 whole entry): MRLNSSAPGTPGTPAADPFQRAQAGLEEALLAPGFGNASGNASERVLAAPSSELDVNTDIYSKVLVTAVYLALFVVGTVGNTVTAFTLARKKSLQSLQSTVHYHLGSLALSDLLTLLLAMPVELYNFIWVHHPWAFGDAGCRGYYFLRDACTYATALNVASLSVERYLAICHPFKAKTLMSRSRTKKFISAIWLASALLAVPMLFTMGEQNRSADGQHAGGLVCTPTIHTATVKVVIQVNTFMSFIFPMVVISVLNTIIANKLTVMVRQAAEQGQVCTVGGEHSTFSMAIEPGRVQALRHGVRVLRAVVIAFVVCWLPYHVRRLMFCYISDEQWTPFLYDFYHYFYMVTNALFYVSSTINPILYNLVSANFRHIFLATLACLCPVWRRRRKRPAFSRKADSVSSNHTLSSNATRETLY
Excerpt: (§1) Frozen tissue sections from receptor-positive human tumors were used in a competitive binding assay.

Row | Kd [nM] | Molecule
1 | 4.5 | B1
2 | 14 | {DTPA}-[dK]P[Ala(PipAm)]RPY[Tle]L-OH [DTPA-DLys-Pro-Ala(PipAm)-Arg-Pro-Tyr-tBuGly-Leu-OH]
3 | 8.6 | B2
4 | 25 | {DTPA}-[dK]P[Gly(1-amidinopiperidin-4-yl)]RPY[Chg]L-OH [DTPA-DLys-Pro-Gly(PipAm)-Arg-Pro-Tyr-Chg-Leu-OH]
5 | 175 | B3
6 | 2.7 | B4
7 | 4.5 | B5
8 | 12.5 | B6
9 | 3.5 | B7
10 | 6.4 | {DTPA}-[dK]P[Gly(1-amidinopiperidin-4-yl)]RP[dY][Tle]L-OH [DTPA-DLys-Pro-Gly(PipAm)-Arg-Pro-DTyr-tBuGly-Leu-OH]
11 | 83 | B8
12 | 3.5 | {DTPA}-[dK]P[Gly(1-amidinopiperidin-4-yl)]RPY[Tle]L-OH (also called Compound X) [DTPA-DLys-Pro-Gly(PipAm)-Arg-Pro-Tyr-tBuGly-Leu-OH]
13 | 68 | {DTPA}-[dK]P[Aba(Apy)]RPYIL-OH (reading uncertain, also called Compound III) [DTPA-DLys-Pro-Aba(Apy)-Arg-Pro-Tyr-Ile-Leu-OH]
14 | 49 | {DTPA}-[dK]P[Gly(1-amidinopiperidin-4-yl)]RPY[Tle]L-{NHOH} [DTPA-DLys-Pro-Gly(PipAm)-Arg-Pro-Tyr-tBuGly-Leu-HA]
15 | 14 | {DTPA}-[dK]P[homoAla(PipAm)]RPY[Tle]L-OH [DTPA-DLys-Pro-homoAla(PipAm)-Arg-Pro-Tyr-tBuGly-Leu-OH]
16 | 1200 | {DTPA}-[dK]PR[Aba(Apy)]PYIL-OH (reading uncertain) [DTPA-DLys-Pro-Arg-Aba(Apy)-Pro-Tyr-Ile-Leu-OH]

biological target: T1, neurotensin receptors (frozen tissue …); assay: as above; remark: another data set of the same source
Excerpt: as §1

Row | Kd [nM] | Molecule
17 | 8.6 | B2
18 | 2.7 | B4
19 | 68 | {DTPA}-[dK]P[Aba(Apy)]RPYIL-OH (reading uncertain, also called Compound III) [DTPA-DLys-Pro-Aba(Apy)-Arg-Pro-Tyr-Ile-Leu-OH]

biological target: neurotensin receptors (frozen tissue sections from receptor-positive human tumors) (human) (UniProt P30989); assay: as above
Sequence (P30989 whole entry): as above

Row | Kd [nM] | Molecule
20 | > 10000 | DTPA-DLys-Pro-Aba(Apy)-Aba(Apy)-Pro-Tyr-Ile-Leu-OH (peptide)
21 | 45 | {DTPA}-[dK]P[Gly(1-amidinopiperidin-4-yl)]RP[Dmt][Tle]L-OH [DTPA-DLys-Pro-Gly(PipAm)-Arg-Pro-(2,6-diMe)Tyr-tBuGly-Leu-OH]
22 | 24 | {DTPA}-[dK][AzeCA][Gly(1-amidinopiperidin-4-yl)]RPY[Tle]L-OH [DTPA-DLys-AzeCA-Gly(PipAm)-Arg-Pro-Tyr-tBuGly-Leu-OH]
23 | 300 | {DTPA}-[dK]P[Gly(1-amidinopiperidin-4-yl)]RP[mTyr][Tle]L-OH [DTPA-DLys-Pro-Gly(PipAm)-Arg-Pro-mTyr-tBuGly-Leu-OH]
24 | 7.3 | B9
25 | 290 | B10
26 | 3.9 | {DTPA}-[PipGly]P[Gly(1-amidinopiperidin-4-yl)]RPY[Tle]L-OH [DTPA-PipGly-Pro-Gly(PipAm)-Arg-Pro-Tyr-tBuGly-Leu-OH]
27 | 5 | B11
28 | 12 | B12
29 | 740 | {DTPA}-[dK]P[Gly(1-amidinopiperidin-4-yl)]R[AzeCA]Y[Tle]L-OH [DTPA-DLys-Pro-Gly(PipAm)-Arg-AzeCA-Tyr-tBuGly-Leu-OH]
30 | 140 | {DTPA}-[dK]P[Gly(1-amidinopiperidin-4-yl)][PipGly]PY[Tle]L-OH [DTPA-DLys-Pro-Gly(PipAm)-PipGly-Pro-Tyr-tBuGly-Leu-OH]

biological target: T1, neurotensin receptors (frozen tissue …); assay: as above; remark: another data set of the same source
Excerpt: as §1

Row | Kd [nM] | IC50 [nM] | Molecule
31 | 8.6 |  | B2
32 | 175 |  | B3
33 | 2.7 |  | B4
34 |  | 12.5 | B6
35 | 83 |  | B8
36 |  | 3.5 | {DTPA}-[dK]P[Gly(1-amidinopiperidin-4-yl)]RPY[Tle]L-OH (also called Compound X) [DTPA-DLys-Pro-Gly(PipAm)-Arg-Pro-Tyr-tBuGly-Leu-OH]
37 | 68 |  | {DTPA}-[dK]P[Aba(Apy)]RPYIL-OH (reading uncertain, also called Compound III) [DTPA-DLys-Pro-Aba(Apy)-Arg-Pro-Tyr-Ile-Leu-OH]
38 | 1200 |  | {DTPA}-[dK]PR[Aba(Apy)]PYIL-OH (reading uncertain) [DTPA-DLys-Pro-Arg-Aba(Apy)-Pro-Tyr-Ile-Leu-OH]

Source: patent publication US20050191240A1 (BIOSYNTHEMA, published 2005)
